Assay results taken from patent publication US7858298.

Tests used:
[1] = molecular target: human CCR5 expressed on the cell surface (human) (UniProt P51681); experiment: cell-based or functional assay
[2] = molecular target: CD4 on CD4+ target cells (human) (UniProt P01730); experiment: cell-based or functional assay

Sequence of recombinant human MIP-1β (P13236 24-92 limits assumed): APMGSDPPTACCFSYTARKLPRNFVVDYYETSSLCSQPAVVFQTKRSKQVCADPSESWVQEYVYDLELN
Sequence of recombinant human MIP-1α (P10147 27-92 limits assumed): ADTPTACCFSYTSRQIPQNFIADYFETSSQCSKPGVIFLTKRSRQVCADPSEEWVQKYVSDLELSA
Sequence of recombinant human RANTES (P13501 24-91): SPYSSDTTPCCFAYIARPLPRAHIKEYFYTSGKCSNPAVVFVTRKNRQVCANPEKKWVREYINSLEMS

“recombinant human MIP-1α (from UniProt P10147 27-92) (ligand)” gave a % Fusion (RET assay), LW5 CD4+ cells with HeLa-JR-FL cells; MIP-1α 533 ng/ml [1] of 72%, a % Fusion (RET assay), PM1 cells with HeLa-JR-FL cells; MIP-1α 400 ng/ml [1] of 39% and a % luciferase activity, entry of ADA env-complemented virus into PM1 cells; MIP-1α 100 ng/ml [1] of 54%. It also gave a % luciferase activity, entry of BaL env-complemented virus into PM1 cells; MIP-1α 100 ng/ml [1] of 54%.

“recombinant human MIP-1β (from UniProt P13236 24-92) (ligand)” gave a % Fusion (RET assay), LW5 CD4+ cells with HeLa-JR-FL cells; MIP-1β 133 ng/ml [1] of 44%, a % Fusion (RET assay), PM1 cells with HeLa-JR-FL cells; MIP-1β 100 ng/ml [1] of 13% and a % luciferase activity, entry of ADA env-complemented virus into PM1 cells; MIP-1β 100 ng/ml [1] of 6%. For the same substance, the % luciferase activity, entry of BaL env-complemented virus into PM1 cells; MIP-1β 100 ng/ml [1] was 1%.

“recombinant human RANTES (from UniProt P13501 24-91) (ligand)” was tested, and the % Fusion (RET assay), LW5 CD4+ cells with HeLa-JR-FL cells; RANTES 106 ng/ml [1] was 65%, the % Fusion (RET assay), PM1 cells with HeLa-JR-FL cells; RANTES 80 ng/ml [1] was 8% and the % luciferase activity, entry of ADA env-complemented virus into PM1 cells; RANTES 100 ng/ml [1] was 1%. For the same substance, the % luciferase activity, entry of BaL env-complemented virus into PM1 cells; RANTES 100 ng/ml [1] was 1%.

With RANTES + MIP-1α + MIP-1β the % Fusion (RET assay), LW5 CD4+ cells with HeLa-JR-FL cells; R/Mα/Mβ 106/533/133 ng/ml [1] was 39%, the % Fusion (RET assay), PM1 cells with HeLa-JR-FL cells; R/Mα/Mβ 80/400/100 ng/ml [1] was 1% and the % luciferase activity, entry of ADA env-complemented virus into PM1 cells; R/Mα/Mβ 50/50/50 ng/ml [1] was 3%. For the same substance, the % luciferase activity, entry of BaL env-complemented virus into PM1 cells; R/Mα/Mβ 50/50/50 ng/ml [1] was 2%, the % luciferase activity, entry of JR-FL env-complemented virus into LW4 CD4+ T-cells; R/Mα/Mβ 200/200/200 ng/ml [1] was 14% and the % luciferase activity, entry of JR-FL env-complemented virus into LW5 CD4+ T-cells; R/Mα/Mβ 200/200/200 ng/ml [1] was 15%. It also gave a luciferase activity, ADA entry into 3T3-CD4 cells expressing CKR-5, with R/Mα/Mβ 400 ng/ml each (28400 without) (luciferase activity (unit not given)) [1] of 1220, a luciferase activity, ADA entry into COS-CD4 cells expressing CKR-5, with R/Mα/Mβ 400 ng/ml each (153000 without) (luciferase activity (unit not given)) [1] of 3210 and a luciferase activity, ADA entry into HeLa-CD4 cells expressing CKR-5, with R/Mα/Mβ 400 ng/ml each (310000 without) (luciferase activity (unit not given)) [1] of 6340. For the same substance, the luciferase activity, BaL entry into 3T3-CD4 cells expressing CKR-5, with R/Mα/Mβ 400 ng/ml each (11700 without) (luciferase activity (unit not given)) [1] was 756, the luciferase activity, BaL entry into COS-CD4 cells expressing CKR-5, with R/Mα/Mβ 400 ng/ml each (58800 without) (luciferase activity (unit not given)) [1] was 756 and the luciferase activity, BaL entry into HeLa-CD4 cells expressing CKR-5, with R/Mα/Mβ 400 ng/ml each (104000 without) (luciferase activity (unit not given)) [1] was 750.

For monoclonal antibody OKT4A, the % Fusion (RET assay), LW5 CD4+ cells with HeLa-BRU cells; OKT4A 3 ug/ml [2] was 0% and the % Fusion (RET assay), LW5 CD4+ cells with HeLa-JR-FL cells; OKT4A 3 ug/ml [2] was 0%.
